Assay results: US20150344570A1 (published 2015)

T1: FcγRIIa H (FcγRIIa type H, His at position 131), extracellular domain with C-terminal His tag (human, UniProt P12318 34-217)
T1 construct: extracellular domain; expressed in FreeStyle293 cells; also called FcgRIIa H; 2aH; not shown: His tag attached to the C terminus
T1 sequence (looked up): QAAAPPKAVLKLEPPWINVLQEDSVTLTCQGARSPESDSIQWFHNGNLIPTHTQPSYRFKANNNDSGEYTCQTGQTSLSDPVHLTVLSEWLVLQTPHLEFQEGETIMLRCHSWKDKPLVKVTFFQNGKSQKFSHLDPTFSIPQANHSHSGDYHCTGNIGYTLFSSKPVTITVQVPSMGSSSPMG

T2: FcγRIIb, extracellular domain with C-terminal His tag (human, UniProt P31994 43-217)
T2 construct: extracellular domain; expressed in FreeStyle293 cells; also called FcgRIIb; 2b; not shown: His tag attached to the C terminus
T2 sequence (looked up): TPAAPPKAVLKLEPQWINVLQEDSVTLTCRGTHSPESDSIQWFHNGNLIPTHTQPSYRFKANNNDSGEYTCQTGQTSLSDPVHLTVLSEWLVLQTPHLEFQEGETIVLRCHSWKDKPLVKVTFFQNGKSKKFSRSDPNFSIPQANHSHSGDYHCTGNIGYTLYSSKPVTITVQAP

T3: FcγRIIb (human, UniProt P31994 43-217)
T3 construct: extracellular domain; Soluble extracellular domain with a C-terminal His tag, expressed in FreeStyle293 cells; also called FcgRIIb; 2b; not shown: His tag attached to the C terminus
T3 sequence (looked up): T2 sequence (looked up)

B1: GpH7-A5/GpH7-B3 variant P238_18N/GpL16-k0 (antibody, human IgG1, kappa)
heavy 1: not shown
heavy 2: not shown
light: DIVMTQSPLSLPVTPGEPASISCQASESLVHSNRNTYLHWYLQKPGQSPQLLIYKVSNRFSGVPDRFSGSGSGTDFTLKISRVEAEDVGVYYCSQNTHVPPTFGQGTKVEIERTVAAPSVFIFPPSDEQLKSGTASVVCLLNNFYPREAKVQWKVDNALQSGNSQESVTEQDSKDSTYSLSSTLTLSKADYEKHKVYACEVTHQGLSSPVTKSFNRGEC
notes: Heterodimerized antibody (He Ab): mutation in the GpH7-B3 chain only; also called He Ab
B2: GpH7-A5/GpH7-B3 variant P238_03V/GpL16-k0 (antibody, human IgG1, kappa)
heavy 1: not shown
heavy 2: not shown
light: B1 light
notes: Heterodimerized anti-glypican-3 IgG1; the mutation is in the GpH7-B3 chain only; also called He Ab
B3: GpH7-A5/GpH7-B3 variant P238_04F/GpL16-k0 (antibody, human IgG1, kappa)
heavy 1: not shown
heavy 2: not shown
light: B1 light
notes: as for B2
B4: GpH7-A5/GpH7-B3 variant S239_18N/GpL16-k0 (antibody, human IgG1, kappa)
heavy 1: not shown
heavy 2: not shown
light: B1 light
notes: as for B1
B5: GpH7-A5/GpH7-B3 variant P238_15Y/GpL16-k0 (antibody, human IgG1, kappa)
heavy 1: not shown
heavy 2: not shown
light: B1 light
notes: as for B2
B6: GpH7-A5/GpH7-B3 variant P238_08L/GpL16-k0 (antibody, human IgG1, kappa)
heavy 1: not shown
heavy 2: not shown
light: B1 light
notes: as for B2
B7: GpH7-A5/GpH7-B3 variant V266_14T/GpL16-k0 (antibody, human IgG1, kappa)
heavy 1: not shown
heavy 2: not shown
light: B1 light
notes: as for B1
B8: GpH7-A5/GpH7-B3 variant P238_13S/GpL16-k0 (antibody, human IgG1, kappa)
heavy 1: not shown
heavy 2: not shown
light: B1 light
notes: as for B2
B9: GpH7-A5/GpH7-B3 variant V266_12R/GpL16-k0 (antibody, human IgG1, kappa)
heavy 1: not shown
heavy 2: not shown
light: B1 light
notes: as for B1
B10: GpH7-A5/GpH7-B3 variant S239_09D/GpL16-k0 (antibody, human IgG1, kappa)
heavy 1: not shown
heavy 2: not shown
light: B1 light
notes: as for B1
B11: GpH7-A5/GpH7-B3 variant P238_07I/GpL16-k0 (antibody, human IgG1, kappa)
heavy 1: not shown
heavy 2: not shown
light: B1 light
notes: as for B2
B12: GpH7-A5/GpH7-B3 variant V266_13S/GpL16-k0 (antibody, human IgG1, kappa)
heavy 1: not shown
heavy 2: not shown
light: B1 light
notes: as for B1
B13: GpH7-A5/GpH7-B3 variant S239_20W/GpL16-k0 (antibody, human IgG1, kappa)
heavy 1: not shown
heavy 2: not shown
light: B1 light
notes: as for B1
B14: GpH7-A5/GpH7-B3 variant P238_19Q/GpL16-k0 (antibody, human IgG1, kappa)
heavy 1: not shown
heavy 2: not shown
light: B1 light
notes: as for B1
B15: GpH7-A5/GpH7-B3 variant V266_10E/GpL16-k0 (antibody, human IgG1, kappa)
heavy 1: not shown
heavy 2: not shown
light: B1 light
notes: as for B1
B16: GpH7-A5/GpH7-B3 variant P238_20W/GpL16-k0 (antibody, human IgG1, kappa)
heavy 1: not shown
heavy 2: not shown
light: B1 light
notes: as for B1
B17: GpH7-A5/GpH7-B3 variant V266_01G/GpL16-k0 (antibody, human IgG1, kappa)
heavy 1: not shown
heavy 2: not shown
light: B1 light
notes: as for B1

What was measured:
[1] = molecular target: T1, FcγRIIa H (FcγRIIa type H, His at …); experiment: SPR (Biacore); He/Con_2aH divided by He/Con_2b (FcγRIIa H against FcγRIIb)
[2] = molecular target: T1, FcγRIIa H (FcγRIIa type H, His at …); experiment: SPR (Biacore), antibody captured on antigen peptide chip, FcγR as analyte; relative to GpH7-A5/GpH7-B3/GpL16-k0 = 100
[3] = molecular target: T2, FcγRIIb, extracellular domain with …; experiment: as above
[4] = molecular target: T4, FcγRIIIa (human, UniProt P08637 17-208); experiment: SPR; He/Con_3a (FcγRIIIa) divided by He/Con_2b (FcγRIIb)
T4 construct: extracellular domain; Soluble extracellular domain with a C-terminal His tag; also called FcgRIIIa; 3a; not shown: His tag attached to the C terminus
T4 sequence (P08637 17-208): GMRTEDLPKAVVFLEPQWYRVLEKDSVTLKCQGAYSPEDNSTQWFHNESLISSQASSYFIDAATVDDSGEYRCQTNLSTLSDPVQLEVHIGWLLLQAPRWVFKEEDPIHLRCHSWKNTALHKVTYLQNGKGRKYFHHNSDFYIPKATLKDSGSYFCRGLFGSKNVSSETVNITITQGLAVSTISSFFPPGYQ

[5] = molecular target: T3, FcγRIIb; experiment: SPR (Biacore), antibody captured on chip, FcγR as analyte
[6] = molecular target: T4, FcγRIIIa; experiment: as above

| Binder | He_2aH/2b (IIaH/IIb) [1] | He/Con_2aH (relative binding activity) [2] | He/Con_2b (relative binding activity) [3] | He_3a/2b (IIIa/IIb) [4] | He/Con_2b [5] | He/Con_3a [6] |
| --- | --- | --- | --- | --- | --- | --- |
| B1 | 0.73 ratio | 53.5 % of HeCon Ab (= 100) | 73.2 % of HeCon Ab (= 100) | – | – | – |
| B2 | – | – | – | 0.36 ratio | 120 relative binding, GpH7-A5/GpH7-B3/GpL16-k0 = 100 | 43.8 relative binding, GpH7-A5/GpH7-B3/GpL16-k0 = 100 |
| B3 | – | – | – | 0.15 ratio | 312 relative binding, GpH7-A5/GpH7-B3/GpL16-k0 = 100 | 46.7 relative binding, GpH7-A5/GpH7-B3/GpL16-k0 = 100 |
| B4 | 0.79 ratio | 94.2 % of HeCon Ab (= 100) | 119 % of HeCon Ab (= 100) | – | – | – |
| B5 | – | – | – | 0.3 ratio | 218 relative binding, GpH7-A5/GpH7-B3/GpL16-k0 = 100 | 64.5 relative binding, GpH7-A5/GpH7-B3/GpL16-k0 = 100 |
| B6 | – | – | – | 0.37 ratio | 204 relative binding, GpH7-A5/GpH7-B3/GpL16-k0 = 100 | 75.5 relative binding, GpH7-A5/GpH7-B3/GpL16-k0 = 100 |
| B7 | 0.53 ratio | 43.3 % of HeCon Ab (= 100) | 82.3 % of HeCon Ab (= 100) | – | – | – |
| B8 | – | – | – | 0.64 ratio | 70.4 relative binding, GpH7-A5/GpH7-B3/GpL16-k0 = 100 | 44.9 relative binding, GpH7-A5/GpH7-B3/GpL16-k0 = 100 |
| B9 | -1.05 ratio | 1.1 % of HeCon Ab (= 100) | -1.1 % of HeCon Ab (= 100) | – | – | – |
| B10 | 0.56 ratio | 114 % of HeCon Ab (= 100) | 206 % of HeCon Ab (= 100) | – | – | – |
| B11 | – | – | – | 0.35 ratio | 80 relative binding, GpH7-A5/GpH7-B3/GpL16-k0 = 100 | 27.8 relative binding, GpH7-A5/GpH7-B3/GpL16-k0 = 100 |
| B12 | 0.5 ratio | 27 % of HeCon Ab (= 100) | 54.4 % of HeCon Ab (= 100) | – | – | – |
| B13 | 0.78 ratio | 35.2 % of HeCon Ab (= 100) | 45.1 % of HeCon Ab (= 100) | – | – | – |
| B14 | 0.51 ratio | 56.4 % of HeCon Ab (= 100) | 110 % of HeCon Ab (= 100) | – | – | – |
| B15 | 0.66 ratio | 10.1 % of HeCon Ab (= 100) | 15.2 % of HeCon Ab (= 100) | – | – | – |
| B16 | 0.49 ratio | 59.5 % of HeCon Ab (= 100) | 123 % of HeCon Ab (= 100) | – | – | – |
| B17 | 0.71 ratio | 36.7 % of HeCon Ab (= 100) | 51.5 % of HeCon Ab (= 100) | – | – | – |
